The target of test [1] is human SETD3 (residues 1-497) (human) (UniProt Q86TU7). Nature of the test: ITC. A general note: In ITC the heat of successive injections is recorded.
Test [2] shares this target. Nature of the test: ITC. This is another data set of the same source.

Our source for the Kd values is paper doi:10.1101/2021.12.30.474520.

Where two headings read alike, the source gives them in different places.

For the substance “β-actin peptide, residues 66-81, with 3-pyridylalanine at position 73 (βA-3PyrAla73) (from UniProt P60709 66-81)”, the Kd in test [1] amounted to 44.4 µM; in test [2], 48.5 µM.
Regarding “β-actin peptide, residues 66-81, with 4-pyridylalanine at position 73 (βA-4PyrAla73) (from UniProt P60709 66-81)”, the Kd in test [1] was determined as 3.1 µM; in test [2] it was 4.9 µM.
The like results for “β-actin peptide, residues 66-81, with ornithine at position 73 (βA-Orn73) (from UniProt P60709 66-81)” were, in that order, 7.2 µM and 39.2 µM.
For “β-actin peptide, residues 66-81, with β-triazolylalanine at position 73 (βA-βTriaA73) (from UniProt P60709 66-81)”, in that order: 0.8 µM and 4 µM.

In general, Kd refers to the constant that tells how readily two partners part at equilibrium. A high value points to a looser complex.
